# Measurements: patent US7094407B2, “Fusion peptide containing human type-1 collagen derived peptide, preparation thereof, and skin anti-aging cosmetic composition comprising the same” (LG Household & Health Care Ltd., priority 2002, dated 2006)
# Assays:
# Balb/c mice = assay: Allergy test (LLNA, murine local lymph node assay); type: in vivo, mouse; details: 0.5% and 1.0% solutions in ethanol, 50 μl to both ears for 3 days, [3H]-methylthymidine; versus control
# Protocol: An experiment using ethanol as a carrier was selected for a safety test of the compound of Chemical Formula 1 when used as a cosmetic raw material [Reference: Kimber (1990): Identification of contact allergens using the murinelocal lymph node assay, J. Appl. Toxicol. 10(3); 173–180]. A control that uses cosmetic material for an anti-aging agent and the compound of Chemical Formula 1 were prepared in 0.5% and 1.0% solutions. 50 μl of the solution was applied to both ears of Balb/c mice for 3 days, and then the auricular lymph nodes were removed from the mice. The lymph nodes were pulverized to a monocell state, and radioisotope [3H]-methylthymidine was added thereto, after which a resulting material was cultured for 24 hours. Subsequently, amplification of cells (dpm, disintegrations per minute) was measured using a β-scintillation counter (Beckman LS 6000 TA, USA).
# human fibroblast = assay: Collagen synthesis effects test; type: cell-based; details: summary statement of test results
# Protocol: In order to measure the usefulness of the Tat-human Type-collagen DP prepared in Example 1 as a skin anti-aging agent, it was tested by comparing the preparation with ascorbic acid, which is known to be a material having an exceptional collagen synthesis effect.
# In this test, a human fibroblast of the same number was cultured on a 24-well plate for 24 hours, and the sample as a concentration of 10^−4 to 10^−7 was applied thereto. After 2 hours, proline introduced tridium was applied thereto and a resulting mixture was cultured for 24 hours. Next, an amount of collagen newly-synthesized and newly-secreted from fibroblast was measured a cpm (count per minute) of proline introduced tridium using a medium, and an amount of csp (collagenous sensitive protein) was calculated. A comparative measurement of the collagen synthesis effect was then performed (David F. W. and Wilson Harvey, Analytical Biochemistry (1979); 96, 220 224, Atsushi Hatamochi, Masashi Ono, Hiroaki Ueki, and Masayoshi Namba., J. Invest Dermatol. (1991) 96, 473 477).
# V79-4 cells = assay: Cytotoxicity MTT test; type: cell-based, Chinese hamster
# Protocol: In order to identify the safety of the compound of Chemical Formula 1 when used as a cosmetic raw material, V79–4 cells (Chinese hamster, continuous cell line of lung tissue fibroblast) were cultured and an MTT test was conducted to test cytotoxicity for the compound [Reference: Mossaman T. (1983). Rapid colorimetric assay for cellular growth & survival: application to proliferation & cytotoxicity assays. Journal of Immunological Methods 65, 55–63).
# [1] = Transdermal absorption (penetration into skin cells) test, Franz cell; type: in vitro ADME; details: nude mouse back skin 1.7 cm^2, 24 hours, HPLC and LC mass
# Protocol: Penetration of a compound, agent, etc. into skin cells is commonly referred to as transdermal absorption, and this will be the term used herein. The transdermal absorption test was conducted using the fusion peptide prepared in Example 1 (Reference: Lehman P A, Slattery J T, Franz T J. Percutaneous absorption of retinoids: Influence of vehicle, light exposure, and dose, J. Invest Dermatol., 91; 56–61. 1998).
# Specifically, skin on the back of a female nude mouse 8 weeks of age was cut to a specific depth and to an area of 1.7 cm^2, and the fusion peptide was applied thereto. After 24 hours, the receptor solution and material absorbed in the skin in the back of the mouse were extracted with a transdermal absorption measuring instrument (Franz cell), and quantitatively analyzed using high performance liquid chromatography (HPLC) and liquid chromatography mass (LC mass) techniques. That is, these techniques were used to measure the amount of the compound of Chemical Formula 1 of the present invention that underwent transdermal absorption. […] Example 5: Allergy Test of a Tat-human Type-I collagen DP fusion peptide (LLNA)(SEQ ID NO: 10)
# [2] = tested on: wrinkles on the outer corners of the eyes (crow's-feet); assay: Anti-aging effects, O/W emulsion applied to crow's-feet of human subjects; type: in vivo; details: 29 women in their thirties, 3 months, one time each day
# Protocol: In order to examine anti-aging effects of the Tat-human Type-collagen DP prepared in Example 1, an O/W emulsion comprising the compound of Chemical Formula 1 of the present invention and a control were each applied to human subjects. In particular, the O/W emulsion and control were coated on wrinkles on the outer corners of the eyes (i.e., crow's-feet) of 29 women in their thirties. Application was performed for 3 months, one time each day. Visual observation of anti-aging effects, if any, was performed and ranked according to a scale of four possibilities—no improvement, little improvement, medium improvement, and significant improvement.
# guinea pigs = assay: Skin irritation patch test; type: in vivo, guinea pig; details: O/W emulsion, 48 hours closed patch
# Protocol: In order to test skin irritation of the compound of Chemical Formula 1, a patch test using guinea pigs was conducted [Reference: Draize, J. H. (1959): Dermal toxicity. Assoc. Food and Drug Officials, US. Appraisal of the safety of chemicals in Food, Drugs, and Cosmetics., pp 46–59, Texas State Dept. of Health, Austin, Tex. Federal Register (1973): Method of testing primary irritant substances 38(187): pp 1500–1541]. The compound represented by Chemical Formula 1 was prepared in an O/W emulsion of various concentrations. Fur on the back of the guinea pigs where the sample was to be coated was removed, and the area was allowed to adapt to the surroundings for 24 hours in order to minimize skin irritation that may be caused by the removal of the fur.
# Next, a sample coating region was established (1.5 cm×1.5 cm), a sample and gauze were applied thereto, and the coated region was sealed with a thin paper of solid material in order to prevent loss, after which the sealing material was held firmly in place with an elastic bandage. The guinea pigs were maintained in this state for 48 hours then all the applied materials were removed. At two different time periods of 2 hours and 24 hours after removal of the closed patch (50 hours and 72 hours after patch application), the degree of irritation was determined and indicated by an irritation index (P11: primary cutaneous irritation index) and by an irritation degree scale.
sequence,measurement,setting,value
KKKKKKKKKKTKS (Tat-human Type-I collagen DP fusion peptide),possibility of allergy induction,Balb/c mice,lower possibility of allergy induction than the control
same,synthesis of collagen and hyaluronic acid,human fibroblast,superior synthesis of collagen and hyaluronic acid
same,cytotoxicity (MTT),V79-4 cells; concentration of 0.01 or less,negligent level of toxicity
same,cytotoxicity (MTT),"V79-4 cells; concentration of 0.1 (%, w.v) or more",very weak toxicity
same,transdermal absorption capability,[1],superior transdermal absorption capability
same,anti-aging effects on crow's-feet (visual observation),[2],exhibits anti-aging effects on crow's-feet
same,Irritation Degree,guinea pigs; Concentration 0.01 %,Minute irritation
same,Irritation Index (PII),guinea pigs; Concentration 0.01 %,0.52
same,Irritation Degree,guinea pigs; Concentration 0.1 %,Minute irritation
same,Irritation Index (PII),guinea pigs; Concentration 0.1 %,0.53
same,Irritation Degree,guinea pigs; Concentration 0.5 %,Minute irritation
same,Irritation Index (PII),guinea pigs; Concentration 0.5 %,0.53
